Where no end group is shown, it is not given here.
Key:
Experiment in all cases: ELISA; competition ELISA as described in ref. 20: synthetic peptide in solution blocks PDZ domain binding to immobilized peptide; IC50 = peptide concentration that blocked 50% of binding; no detectable interaction = IC50 > 500 μM
Details in all cases: both partners purified
SCRIB PDZ domain 2 = biological target: T1, SCRIB PDZ domain 2 (human, UniProt Q14160 862-950)
T1 construct: also called SCRIB-2
T1 sequence (looked up): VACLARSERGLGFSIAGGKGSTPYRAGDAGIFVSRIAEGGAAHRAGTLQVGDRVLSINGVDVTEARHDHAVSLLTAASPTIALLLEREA

SCRIB PDZ domain 3 = biological target: T2, SCRIB PDZ domain 3 (human, UniProt Q14160 1004-1093)
T2 construct: also called SCRIB-3
T2 sequence (looked up): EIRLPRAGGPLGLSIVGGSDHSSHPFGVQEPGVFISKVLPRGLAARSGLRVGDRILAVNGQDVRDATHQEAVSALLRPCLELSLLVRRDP

SCRIB PDZ domain 1 = biological target: T3, SCRIB PDZ domain 1 (human, UniProt Q14160 728-815)
T3 construct: also called SCRIB-1

Measured: IC50

T3 sequence (Q14160 728-815): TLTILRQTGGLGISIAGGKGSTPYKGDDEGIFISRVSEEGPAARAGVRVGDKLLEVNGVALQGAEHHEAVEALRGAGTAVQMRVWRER

RQIKIWFQNRRMKWKKRSWFEAWA (not fully specified (C-terminus)) [designed nonbinding peptide Π–RSWFEAWA (peptide 15)]
> 500 µM: SCRIB PDZ domain 2 | SCRIB PDZ domain 3 | SCRIB PDZ domain 1
